Columns and labels:
[1] = target: CLdes CXCR4 sensor (Cdes2 design combined with H113N) (human); test: cell-based or functional assay
[2] = target: WT CXCR4 with an N-terminal 3xHA-tag (human) (UniProt P61073); test: cell-based or functional assay
Chain of WT CXCR4 with an N-terminal 3xHA-tag (human) (P61073 other isoform, or with tags, fused parts or gaps): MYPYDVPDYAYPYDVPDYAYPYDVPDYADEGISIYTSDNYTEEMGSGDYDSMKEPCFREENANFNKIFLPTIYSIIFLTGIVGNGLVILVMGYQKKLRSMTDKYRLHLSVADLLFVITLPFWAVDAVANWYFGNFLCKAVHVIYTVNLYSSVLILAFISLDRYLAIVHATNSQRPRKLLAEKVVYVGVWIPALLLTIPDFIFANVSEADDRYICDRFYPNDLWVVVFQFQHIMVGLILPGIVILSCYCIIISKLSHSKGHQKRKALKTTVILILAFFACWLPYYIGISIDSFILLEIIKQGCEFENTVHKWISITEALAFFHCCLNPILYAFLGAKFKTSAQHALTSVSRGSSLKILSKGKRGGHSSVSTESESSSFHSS

migration of transduced primary human T cells (Boyden chamber, migration index over no-chemoattractant control) [1]: < 5 fold
migration of transduced primary human T cells (Boyden chamber, migration index over no-chemoattractant control) [2]: 1.5 fold
Substance: full-length wild-type CXCL12 chemokine (from UniProt P48061 22-93) (ligand)

Source: patent publication US20250210128A1, “COMPUTER-IMPLEMENTED DESIGN OF PEPTIDE:RECEPTOR SIGNALING COMPLEXES FOR ENHANCED CHEMOTAXIS” (Ecole Polytechnique Federale de Lausanne (EPFL), priority 2022, published 2025)
